Reference: publication PMC6477676, “Staufen2-mediated RNA recognition and localization requires combinatorial action of multiple domains”

Experiments:
mStau2 full-length = target: T1, mStau2 full-length (Mus musculus, UniProt Q8CJ67 1-570); assay: EMSA; Kd low micromolar; SPR: HBS-EP (10 mM HEPES pH 7.4, 150 mM NaCl, 3 mM EDTA, 0.005% P20); EMSA: 5 nM RNA, protein buffer (40 mM Bis-Tris pH 7, 150 mM NaCl, 2 mM DTT presumed), 4% glycerol, 30 ug/mL yeast tRNA, RT; NMR: 150 mM NaCl, 20 mM Na phosphate pH 7.0, 5 mM DTT, 298 K; settings: protein: recombinant; tags: HisSUMO; label: 5' 32P; hairpin
T1 sequence: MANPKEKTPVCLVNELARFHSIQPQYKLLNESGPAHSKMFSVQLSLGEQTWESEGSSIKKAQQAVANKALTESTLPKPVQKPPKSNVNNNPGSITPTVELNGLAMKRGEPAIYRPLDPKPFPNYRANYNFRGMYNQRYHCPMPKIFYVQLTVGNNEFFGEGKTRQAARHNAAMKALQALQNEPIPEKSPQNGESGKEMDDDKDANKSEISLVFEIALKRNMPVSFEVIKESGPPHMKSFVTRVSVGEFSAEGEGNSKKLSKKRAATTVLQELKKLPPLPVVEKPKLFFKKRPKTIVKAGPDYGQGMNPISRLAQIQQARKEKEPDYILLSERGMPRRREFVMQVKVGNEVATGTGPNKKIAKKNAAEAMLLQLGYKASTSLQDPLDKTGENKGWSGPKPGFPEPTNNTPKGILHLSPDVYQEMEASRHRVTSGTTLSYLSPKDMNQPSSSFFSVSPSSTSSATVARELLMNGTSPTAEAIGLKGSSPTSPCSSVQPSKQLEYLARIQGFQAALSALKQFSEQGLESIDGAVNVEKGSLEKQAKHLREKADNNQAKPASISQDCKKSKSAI

mStau2 dsRBD3-4 [1] = target: T2, mStau2 dsRBD3-4 (Mus musculus, UniProt Q8CJ67 207-375); assay: EMSA; SPR: HBS-EP (10 mM HEPES pH 7.4, 150 mM NaCl, 3 mM EDTA, 0.005% P20); EMSA: 5 nM RNA, protein buffer (40 mM Bis-Tris pH 7, 150 mM NaCl, 2 mM DTT presumed), 4% glycerol, 30 ug/mL yeast tRNA, RT; NMR: 150 mM NaCl, 20 mM Na phosphate pH 7.0, 5 mM DTT, 298 K; settings: protein: recombinant; tags: HisSUMO removed; label: 5' 32P; hairpin
T2 sequence: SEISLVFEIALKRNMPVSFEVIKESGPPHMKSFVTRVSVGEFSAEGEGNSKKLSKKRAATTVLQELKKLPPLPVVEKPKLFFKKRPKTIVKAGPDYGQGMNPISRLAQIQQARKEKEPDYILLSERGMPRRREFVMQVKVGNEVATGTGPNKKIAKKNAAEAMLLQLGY

mStau2 dsRBD1-2 [2] = target: T3, mStau2 dsRBD1-2 (Mus musculus, UniProt Q8CJ67 8-181); assay: EMSA; comparable with dsRBD3-4; SPR: HBS-EP (10 mM HEPES pH 7.4, 150 mM NaCl, 3 mM EDTA, 0.005% P20); EMSA: 5 nM RNA, protein buffer (40 mM Bis-Tris pH 7, 150 mM NaCl, 2 mM DTT presumed), 4% glycerol, 30 ug/mL yeast tRNA, RT; NMR: 150 mM NaCl, 20 mM Na phosphate pH 7.0, 5 mM DTT, 298 K; settings: protein: recombinant; tags: HisSUMO removed; label: 5' 32P; hairpin
T3 sequence: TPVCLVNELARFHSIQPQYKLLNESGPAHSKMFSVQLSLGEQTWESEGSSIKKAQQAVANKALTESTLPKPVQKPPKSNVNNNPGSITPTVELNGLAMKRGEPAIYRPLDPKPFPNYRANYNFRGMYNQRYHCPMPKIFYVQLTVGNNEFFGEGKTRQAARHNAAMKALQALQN

mStau2 dsRBD3 = target: T4, mStau2 dsRBD3 (Mus musculus, UniProt Q8CJ67 207-274); assay: EMSA; up to 5 uM; SPR: HBS-EP (10 mM HEPES pH 7.4, 150 mM NaCl, 3 mM EDTA, 0.005% P20); EMSA: 5 nM RNA, protein buffer (40 mM Bis-Tris pH 7, 150 mM NaCl, 2 mM DTT presumed), 4% glycerol, 30 ug/mL yeast tRNA, RT; NMR: 150 mM NaCl, 20 mM Na phosphate pH 7.0, 5 mM DTT, 298 K; settings: protein: recombinant; label: 5' 32P; hairpin
T4 sequence: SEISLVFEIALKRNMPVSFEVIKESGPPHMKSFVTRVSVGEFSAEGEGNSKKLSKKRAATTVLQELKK

mStau2 dsRBD4 = target: T5, mStau2 dsRBD4 (Mus musculus, UniProt Q8CJ67 307-375); assay: EMSA; binds at micromolar concentrations; SPR: HBS-EP (10 mM HEPES pH 7.4, 150 mM NaCl, 3 mM EDTA, 0.005% P20); EMSA: 5 nM RNA, protein buffer (40 mM Bis-Tris pH 7, 150 mM NaCl, 2 mM DTT presumed), 4% glycerol, 30 ug/mL yeast tRNA, RT; NMR: 150 mM NaCl, 20 mM Na phosphate pH 7.0, 5 mM DTT, 298 K; settings: protein: recombinant; label: 5' 32P; hairpin
T5 sequence: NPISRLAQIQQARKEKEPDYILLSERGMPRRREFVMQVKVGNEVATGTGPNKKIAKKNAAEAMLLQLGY

mStau2 dsRBD1-2 [3] = target: T3, mStau2 dsRBD1-2; assay: EMSA; Kd micromolar; SPR: HBS-EP (10 mM HEPES pH 7.4, 150 mM NaCl, 3 mM EDTA, 0.005% P20); EMSA: 5 nM RNA, protein buffer (40 mM Bis-Tris pH 7, 150 mM NaCl, 2 mM DTT presumed), 4% glycerol, 30 ug/mL yeast tRNA, RT; NMR: 150 mM NaCl, 20 mM Na phosphate pH 7.0, 5 mM DTT, 298 K; settings: protein: recombinant; tags: HisSUMO removed; label: 5' 32P; hairpin, 3' ss extension
mStau2 dsRBD3-4 [4] = target: T2, mStau2 dsRBD3-4; assay: as above; settings: protein: recombinant; tags: HisSUMO removed; label: 5' 32P; hairpin, 3' ss extension
mStau2 dsRBD1-2 [5] = target: T3, mStau2 dsRBD1-2; assay: EMSA; almost abolished; no complex observed; SPR: HBS-EP (10 mM HEPES pH 7.4, 150 mM NaCl, 3 mM EDTA, 0.005% P20); EMSA: 5 nM RNA, protein buffer (40 mM Bis-Tris pH 7, 150 mM NaCl, 2 mM DTT presumed), 4% glycerol, 30 ug/mL yeast tRNA, RT; NMR: 150 mM NaCl, 20 mM Na phosphate pH 7.0, 5 mM DTT, 298 K; settings: protein: recombinant; tags: HisSUMO removed; label: 5' 32P; hairpin, 3' ss extension
mStau2 dsRBD3-4 [6] = target: T2, mStau2 dsRBD3-4; assay: as above; settings: protein: recombinant; tags: HisSUMO removed; label: 5' 32P; hairpin, 3' ss extension

GGGUUCCGUCAAGCCACUGGGUCUUGAUGGAGC (structured_RNA) [Rgs4 SRS1]: binds (mStau2 full-length).

GGGACAUGCACAUGCAAUUUGUGUAUGUGUAUGU (structured_RNA) [Rgs4 SRS2 (EMSA transcript)]: binds (mStau2 dsRBD3-4 [1]); binds (mStau2 dsRBD1-2 [2]); no binding (mStau2 dsRBD3). GGGACAUGCACAUGCAAUUUGUGUAUGUGUAUGU (structured_RNA) [Rgs4 SRS2 (EMSA transcript)]: binds (mStau2 full-length); binds (mStau2 dsRBD4).

GGACAUGCACAUGAUUUGUAUGUGUAUGUAUAUA (structured_RNA) [12 bp SRS2 stem-loop (11bpSRS2+5)]: binds (mStau2 dsRBD1-2 [3]); binds (mStau2 dsRBD3-4 [4]).

GGACAUGCACAAUUUGUGUGUAUGUAUAUA (structured_RNA) [10 bp SRS2 stem-loop (9bpSRS2+5)]: binds (mStau2 dsRBD1-2 [3]); binds (mStau2 dsRBD3-4 [4]).

GGACAUGCAAUUUGUGUAUGUAUAUA (structured_RNA) [8 bp SRS2 stem-loop (7bpSRS2+5)]: binds (mStau2 dsRBD1-2 [3]); binds (mStau2 dsRBD3-4 [4]).

GGACAUGCAUUUGGUAUGUAUAUA (structured_RNA) [7 bp SRS2 stem-loop (6bpSRS2+5)]: no binding (mStau2 dsRBD1-2 [5]); no binding (mStau2 dsRBD3-4 [6]).
